Drawing on PMC10290134, “Development of a one-shot dual aptamer-based fluorescence nanosensor for rapid, sensitive, and label-free detection of periostin”, this text covers Kd for four molecules.

The term Kd denotes the free concentration of one partner at which half of the binding sites on the other are occupied at equilibrium, for simple one-to-one binding.

This data set deals with T1, Periostin (UniProt Q15063 496-836).
T1 sequence: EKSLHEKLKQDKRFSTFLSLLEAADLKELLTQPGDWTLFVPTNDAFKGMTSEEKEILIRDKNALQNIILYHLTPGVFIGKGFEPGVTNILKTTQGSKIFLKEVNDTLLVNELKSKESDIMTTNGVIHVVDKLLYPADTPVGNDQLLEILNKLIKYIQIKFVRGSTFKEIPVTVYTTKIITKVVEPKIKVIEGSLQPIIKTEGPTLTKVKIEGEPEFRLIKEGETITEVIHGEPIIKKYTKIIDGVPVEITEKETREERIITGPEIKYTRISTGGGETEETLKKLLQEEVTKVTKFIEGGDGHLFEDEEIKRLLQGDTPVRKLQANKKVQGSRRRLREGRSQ
Kind of data set: magnetic bead fluorescence assay; 5 mM Mg2+; 20 mM Tris-HCl pH 8.0, 100 mM NaCl, 5 mM KCl, 5 mM MgCl2, 0.05% Tween 20, 25 °C, 1 h; His-tagged periostin on His-tag magnetic beads. The conditions noted are these: protein: recombinant; tags: 6xHis (pET-28a); label: 5' Cy3.

As to TCAACGCCAGATAAAAACAATTTGCCTTCCTCCGCCCCTGGCTCGAA (ssDNA) [PL2trunc], the Kd was found to be 10.1 nM.

B1: PL5 (ssDNA)
DNA: CACCTAATACGACTCACTATAGCGGATCCGATTCGAACCAGAATATTAGTCGCAAAATCTTGATGCAGTCACTGGCTCGAACAAGCTTGC
As to B1, the Kd was found to be 50.1 nM.

B2: PL5trunc (ssDNA)
DNA: TAATACGACTCACTATAGCGGATCCGATTCGAACCAGAATATTAGTCGCAAAATCTTGATG
With B2, the Kd stood at 37 nM.

B3: PL2 (ssDNA)
DNA: CACCTAATACGACTCACTATAGCGGATCCGAAAGTCAACGCCAGATAAAAACAATTTGCCTTCCTCCGCCCCTGGCTCGAACAAGCTTGC
Turning to B3, the equilibrium dissociation constant (Kd) was 45.7 nM.
